Measured values reported in EP4663199A1.

Biological target: bispecific binding molecule comprising a first specific binding molecule (comprising SEQ ID NO:265 a)
Sequence (chain, as listed by the source, chain 1 of 3): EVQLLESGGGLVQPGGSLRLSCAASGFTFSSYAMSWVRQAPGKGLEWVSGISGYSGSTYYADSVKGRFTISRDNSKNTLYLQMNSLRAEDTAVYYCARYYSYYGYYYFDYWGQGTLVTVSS
Sequence (chain, as listed by the source, chain 2 of 3): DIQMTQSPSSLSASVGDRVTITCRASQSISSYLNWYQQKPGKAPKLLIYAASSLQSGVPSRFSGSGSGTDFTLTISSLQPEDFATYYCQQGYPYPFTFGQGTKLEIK
Sequence (chain, as listed by the source, chain 3 of 3): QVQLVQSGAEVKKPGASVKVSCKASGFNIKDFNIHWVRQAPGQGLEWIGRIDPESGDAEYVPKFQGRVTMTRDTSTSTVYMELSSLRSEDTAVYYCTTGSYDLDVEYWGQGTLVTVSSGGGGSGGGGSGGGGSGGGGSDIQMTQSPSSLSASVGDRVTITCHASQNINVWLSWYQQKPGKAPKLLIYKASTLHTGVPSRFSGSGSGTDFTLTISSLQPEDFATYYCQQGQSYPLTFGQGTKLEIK

## FIGITELKK (modifications not checked) [tag moiety … (SEQ ID NO:2)]
  Kd: 9.4 pM
